Target: the molecule itself
Assay: cell-based or functional assay

B1: Oryza sativa gibberellin 2-oxidase 3 (OsGA2ox3), wild type (enzyme, rice (Oryza sativa), UniProt Q8S0S6 1-327, looked up)
chain: MVVLAGPPAVDHIPLLRSPDPGDVFSGVPVVDLGSPGAARAVVDACERYGFFKVVNHGVATDTMDKAESEAVRFFSQTQPDKDRSGPAYPFGYGSKRIGFNGDMGWLEYLLLALDDASLADACTVPSCAVFRAALNEYISGVRKVAVRVMEAMSEGLGIAQADALSALVTAEGSDQVFRVNHYPPCRALQGLGCSVTGFGEHTDPQLVSVLRSNGTSGLQIALRDGQWVSVPSDRDSFFVNVGDSLQVLTNGRFKSVKHRVVANSLKSRVSFIYFGGPPLAQRIAPLPQLLGEGEQSLYKEFTWDEYKKAAYKSRLGDNRLAQFEKK
Vmax of the tetramer and dimer against the monomers (forms separated by gel filtration): > 3 fold

From article PMC7195466, “A common allosteric mechanism regulates homeostatic inactivation of auxin and gibberellin” (Nature Communications, 2020)
